This passage reports average extension difference results from publication PMC11530556.

The assay concerns the target full-length Titin N2B unique sequence (N2B-us) single-molecule construct, 6His-Avi-2I27-N2B-2I27-Spy (human). Kind of assay: magnetic tweezers single-molecule manipulation; full-length N2B-us tether; jump to 8 pN procedure: 1 pN for 10 s, 8 pN for 20 s, back to 1 pN; bead height difference at 1 pN; 200 nM FHL2; five tethers.

full-length Titin N2B unique sequence (N2B-us) single-molecule construct, 6His-Avi-2I27-N2B-2I27-Spy (human), sequence (Q8WZ42 3717-4288): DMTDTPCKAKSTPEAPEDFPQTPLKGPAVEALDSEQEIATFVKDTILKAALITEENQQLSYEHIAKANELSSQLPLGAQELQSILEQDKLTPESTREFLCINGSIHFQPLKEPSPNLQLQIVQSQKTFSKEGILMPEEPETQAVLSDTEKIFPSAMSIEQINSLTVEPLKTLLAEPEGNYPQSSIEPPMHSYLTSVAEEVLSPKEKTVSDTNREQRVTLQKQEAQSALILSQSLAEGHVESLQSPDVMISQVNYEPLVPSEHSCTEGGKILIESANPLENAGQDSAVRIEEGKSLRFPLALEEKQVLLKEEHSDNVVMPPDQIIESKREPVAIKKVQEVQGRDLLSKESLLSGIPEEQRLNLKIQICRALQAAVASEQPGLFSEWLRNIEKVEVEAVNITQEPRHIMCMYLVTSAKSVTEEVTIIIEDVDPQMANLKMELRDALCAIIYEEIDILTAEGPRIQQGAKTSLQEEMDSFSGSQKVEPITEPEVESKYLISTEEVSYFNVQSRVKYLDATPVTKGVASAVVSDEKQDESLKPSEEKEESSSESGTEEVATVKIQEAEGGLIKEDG

As for “Recombinant GST-FHL2 protein (four-and-a-half LIM domain protein 2) (natural protein)”, the average extension difference at 1 pN before and after 20 s at 8 pN, with 200 nM FHL2 came to 10 nm.
